Laboratory results published in patent US20210115421 (published 2021).

How the values were obtained:
[1] = molecular target: T1, LbCas12a-K595Y (Lachnospiraceae bacterium ND2006, K595Y); test: cleavage_in_vitro; PAM ACCC; NEB 2.1, 37C; wt TTTV benchmark 9.2
[2] = molecular target: T2, LbCas12a-D535N (Lachnospiraceae bacterium ND2006, D535N); test: cleavage_in_vitro; PAM TTGC; NEB 2.1, 37C
[3] = molecular target: T3, LbCas12a-D156Q (Lachnospiraceae bacterium ND2006, D156Q); test: cleavage_in_vitro; PAM CCTA; NEB 2.1, 37C
[4] = molecular target: T4, LbCas12a-G532H (Lachnospiraceae bacterium ND2006, G532H); test: cleavage_in_vitro; PAM TTCA; NEB 2.1, 37C
[5] = molecular target: T5, LbCas12a-T152R (Lachnospiraceae bacterium ND2006, T152R); test: cleavage_in_vitro; PAM CTTC; NEB 2.1, 37C
[6] = molecular target: T4, LbCas12a-G532H; test: cleavage_in_vitro; PAM CTTC; NEB 2.1, 37C
[7] = molecular target: T6, LbCas12a-K595W (Lachnospiraceae bacterium ND2006, K595W); test: cleavage_in_vitro; PAM ACGG; NEB 2.1, 37C
[8] = molecular target: T5, LbCas12a-T152R; test: cleavage_in_vitro; PAM GCCC; NEB 2.1, 37C
[9] = molecular target: T3, LbCas12a-D156Q; test: cleavage_in_vitro; PAM GTTC; NEB 2.1, 37C
[10] = molecular target: T1, LbCas12a-K595Y; test: cleavage_in_vitro; PAM TTCG; NEB 2.1, 37C
[11] = molecular target: T7, LbCas12a-K538W (Lachnospiraceae bacterium ND2006, K538W); test: cleavage_in_vitro; PAM TTTC; NEB 2.1, 37C
[12] = molecular target: T2, LbCas12a-D535N; test: cleavage_in_vitro; PAM TTTC; NEB 2.1, 37C
[13] = molecular target: LbCas12a-D122H (Lachnospiraceae bacterium ND2006, D122H); test: cleavage_in_vitro; PAM TCCC; NEB 2.1, 37C
[14] = molecular target: T5, LbCas12a-T152R; test: cleavage_in_vitro; PAM CCTG; NEB 2.1, 37C
[15] = molecular target: T8, LbCas12a-K121R (Lachnospiraceae bacterium ND2006, K121R); test: cleavage_in_vitro; PAM CCTG; NEB 2.1, 37C
[16] = molecular target: T7, LbCas12a-K538W; test: cleavage_in_vitro; PAM TATA; NEB 2.1, 37C
[17] = molecular target: T8, LbCas12a-K121R; test: cleavage_in_vitro; PAM TTCT; NEB 2.1, 37C
[18] = molecular target: T9, LbCas12a-E159K (Lachnospiraceae bacterium ND2006, E159K); test: cleavage_in_vitro; PAM TTCT; NEB 2.1, 37C
[19] = molecular target: T6, LbCas12a-K595W; test: cleavage_in_vitro; PAM CCCC; NEB 2.1, 37C
[20] = molecular target: T9, LbCas12a-E159K; test: cleavage_in_vitro; PAM CCCC; NEB 2.1, 37C
[21] = molecular target: T1, LbCas12a-K595Y; test: cleavage_in_vitro; PAM GCGC; NEB 2.1, 37C
[22] = molecular target: T7, LbCas12a-K538W; test: cleavage_in_vitro; PAM TATC; NEB 2.1, 37C

B1: PAMDA protospacer 1 crRNA ; protospacer 1 with ACCC PAM (ssRNA ; dsDNA)
RNA: AAUUUCUACUAAGUGUAGAUGGAAUCCCUUCUGCAGCACCUGG
DNA 1: ACCCGGAATCCCTTCTGCAGCACCTGG
DNA 2: CCAGGTGCTGCAGAAGGGATTCCGGGT
- activity [1]: 18.7 fold depletion

B2: PAMDA protospacer 1 crRNA ; protospacer 1 with TTGC PAM (ssRNA ; dsDNA)
RNA: AAUUUCUACUAAGUGUAGAUGGAAUCCCUUCUGCAGCACCUGG
DNA 1: TTGCGGAATCCCTTCTGCAGCACCTGG
DNA 2: CCAGGTGCTGCAGAAGGGATTCCGCAA
- activity [2]: 10.9 fold depletion

B3: PAMDA protospacer 1 crRNA ; protospacer 1 with CCTA PAM (ssRNA ; dsDNA)
RNA: AAUUUCUACUAAGUGUAGAUGGAAUCCCUUCUGCAGCACCUGG
DNA 1: CCTAGGAATCCCTTCTGCAGCACCTGG
DNA 2: CCAGGTGCTGCAGAAGGGATTCCTAGG
- activity [3]: 13.4 fold depletion

B4: PAMDA protospacer 1 crRNA ; protospacer 1 with TTCA PAM (ssRNA ; dsDNA)
RNA: AAUUUCUACUAAGUGUAGAUGGAAUCCCUUCUGCAGCACCUGG
DNA 1: TTCAGGAATCCCTTCTGCAGCACCTGG
DNA 2: CCAGGTGCTGCAGAAGGGATTCCTGAA
- activity [4]: 16.2 fold depletion

B5: PAMDA protospacer 1 crRNA ; protospacer 1 with CTTC PAM (ssRNA ; dsDNA)
RNA: AAUUUCUACUAAGUGUAGAUGGAAUCCCUUCUGCAGCACCUGG
DNA 1: CTTCGGAATCCCTTCTGCAGCACCTGG
DNA 2: CCAGGTGCTGCAGAAGGGATTCCGAAG
- activity [5]: 16.1 fold depletion
- activity [6]: 15.1 fold depletion

B6: PAMDA protospacer 1 crRNA ; protospacer 1 with ACGG PAM (ssRNA ; dsDNA)
RNA: AAUUUCUACUAAGUGUAGAUGGAAUCCCUUCUGCAGCACCUGG
DNA 1: ACGGGGAATCCCTTCTGCAGCACCTGG
DNA 2: CCAGGTGCTGCAGAAGGGATTCCCCGT
- activity [7]: 11.5 fold depletion

B7: PAMDA protospacer 1 crRNA ; protospacer 1 with GCCC PAM (ssRNA ; dsDNA)
RNA: AAUUUCUACUAAGUGUAGAUGGAAUCCCUUCUGCAGCACCUGG
DNA 1: GCCCGGAATCCCTTCTGCAGCACCTGG
DNA 2: CCAGGTGCTGCAGAAGGGATTCCGGGC
- activity [8]: 13 fold depletion

B8: PAMDA protospacer 1 crRNA ; protospacer 1 with GTTC PAM (ssRNA ; dsDNA)
RNA: AAUUUCUACUAAGUGUAGAUGGAAUCCCUUCUGCAGCACCUGG
DNA 1: GTTCGGAATCCCTTCTGCAGCACCTGG
DNA 2: CCAGGTGCTGCAGAAGGGATTCCGAAC
- activity [9]: 15.6 fold depletion

B9: PAMDA protospacer 1 crRNA ; protospacer 1 with TTCG PAM (ssRNA ; dsDNA)
RNA: AAUUUCUACUAAGUGUAGAUGGAAUCCCUUCUGCAGCACCUGG
DNA 1: TTCGGGAATCCCTTCTGCAGCACCTGG
DNA 2: CCAGGTGCTGCAGAAGGGATTCCCGAA
- activity [10]: 17.8 fold depletion

B10: PAMDA protospacer 1 crRNA ; protospacer 1 with TTTC PAM (ssRNA ; dsDNA)
RNA: AAUUUCUACUAAGUGUAGAUGGAAUCCCUUCUGCAGCACCUGG
DNA 1: TTTCGGAATCCCTTCTGCAGCACCTGG
DNA 2: CCAGGTGCTGCAGAAGGGATTCCGAAA
- activity [11]: 11.7 fold depletion
- activity [12]: 10.5 fold depletion

B11: PAMDA protospacer 1 crRNA ; protospacer 1 with TCCC PAM (ssRNA ; dsDNA)
RNA: AAUUUCUACUAAGUGUAGAUGGAAUCCCUUCUGCAGCACCUGG
DNA 1: TCCCGGAATCCCTTCTGCAGCACCTGG
DNA 2: CCAGGTGCTGCAGAAGGGATTCCGGGA
- activity [13]: 18.8 fold depletion

B12: PAMDA protospacer 1 crRNA ; protospacer 1 with CCTG PAM (ssRNA ; dsDNA)
RNA: AAUUUCUACUAAGUGUAGAUGGAAUCCCUUCUGCAGCACCUGG
DNA 1: CCTGGGAATCCCTTCTGCAGCACCTGG
DNA 2: CCAGGTGCTGCAGAAGGGATTCCCAGG
- activity [14]: 14.8 fold depletion
- activity [15]: 13 fold depletion

B13: PAMDA protospacer 1 crRNA ; protospacer 1 with TATA PAM (ssRNA ; dsDNA)
RNA: AAUUUCUACUAAGUGUAGAUGGAAUCCCUUCUGCAGCACCUGG
DNA 1: TATAGGAATCCCTTCTGCAGCACCTGG
DNA 2: CCAGGTGCTGCAGAAGGGATTCCTATA
- activity [16]: 10.4 fold depletion

B14: PAMDA protospacer 1 crRNA ; protospacer 1 with TTCT PAM (ssRNA ; dsDNA)
RNA: AAUUUCUACUAAGUGUAGAUGGAAUCCCUUCUGCAGCACCUGG
DNA 1: TTCTGGAATCCCTTCTGCAGCACCTGG
DNA 2: CCAGGTGCTGCAGAAGGGATTCCAGAA
- activity [17]: 14.4 fold depletion
- activity [18]: 12.7 fold depletion

B15: PAMDA protospacer 1 crRNA ; protospacer 1 with CCCC PAM (ssRNA ; dsDNA)
RNA: AAUUUCUACUAAGUGUAGAUGGAAUCCCUUCUGCAGCACCUGG
DNA 1: CCCCGGAATCCCTTCTGCAGCACCTGG
DNA 2: CCAGGTGCTGCAGAAGGGATTCCGGGG
- activity [19]: 11.9 fold depletion
- activity [20]: 12.3 fold depletion

B16: PAMDA protospacer 1 crRNA ; protospacer 1 with GCGC PAM (ssRNA ; dsDNA)
RNA: AAUUUCUACUAAGUGUAGAUGGAAUCCCUUCUGCAGCACCUGG
DNA 1: GCGCGGAATCCCTTCTGCAGCACCTGG
DNA 2: CCAGGTGCTGCAGAAGGGATTCCGCGC
- activity [21]: 17.5 fold depletion

B17: PAMDA protospacer 1 crRNA ; protospacer 1 with TATC PAM (ssRNA ; dsDNA)
RNA: AAUUUCUACUAAGUGUAGAUGGAAUCCCUUCUGCAGCACCUGG
DNA 1: TATCGGAATCCCTTCTGCAGCACCTGG
DNA 2: CCAGGTGCTGCAGAAGGGATTCCGATA
- activity [22]: 9.66 fold depletion
